# Experimental data from patent publication US20200171068A1, “COMPOSITIONS COMPRISING APTAMERS AND NUCLEIC ACID PAYLOADS AND METHODS OF USING THE SAME” (Children's National Medical Center, priority 2017, published 2020).
# “Also recorded” adds a separate entry of the source.
# B1: miR-26a chimera: mouse c-Kit DNA aptamer-C3-passenger RNA, passenger RNA-TEG-cholesterol and miR-26a-5p guide strand annealed (SEQ ID NO:6/7, 8, 9) (nucleic acid)
# chain 1: GCTCAACGCGGGACGGCTCTCCCATTGAC
# chain 2: CCUAUUCUGG
# chain 3: GUUACUUGCACG
# guide: UUCAAGUAAUCCAGGAUAGGCU
# modifications: chemistry not fully specified
# Experiments:
# hematopoiesis = assay type: in vivo, mouse
# Experimental: The mice received intravenous injection of 670 pmol/20 g miR-26a or control chimera daily for 3 days. 150 mg/kg 5-FU was injected on day 2 of the chimera treatment. FIG. 2A is a graph showing the numbers of white blood cells (WBC) 10 days after 5-FU treatment. Data (mean+s.d.) were pooled from two experiments, involving a total of 6 mice per group. FIG. 2B is a graph showing the number of bone marrow (BM) cells 10 days after 5-FU treatment. Data (mean+s.d.) were pooled from two experiments, involving a total of 6 mice per group. FIG. 2C is (left) a representative picture of LSK population 5 days after 5-FU treatment with or without miR-26a chimera treatment; and (right) a graph showing the percentages of LSK population. Data (mean+s.d.) were pooled from two experiments, involving a total of 6 mice per group. FIG. 2D is a series of graphs showing apoptosis. Left, representative picture of Annexin V^+ in LSK population 5 days after 5-FU treatment. Right, the percentages of Annexin V^+ in the LSK population. Data (mean+s.d.) were pooled from two experiments, involving a total of 6 mice per group. *P<0.05, **P<0.01. FIG. 2E is a picture showing a putative miR-26a target site in the 3′UTR of mouse Bak1 (SEQ ID NO:19). Base pairs CU-GA -UACUUGAA (SEQ ID NO:20) of the Bak Sequence and its complementary basepairs are the sites with highly probability preferential conservation between mammals. The miR-26a sequence depicted is SEQ ID NO:21. FIG. 2F is a graph showing relative luciferase activity of reporter constructs containing the wild-type or mutant (mut) 3′-UTR of mouse Bak1 in HEK293 cells co-transfected with either miR-26a precursor (OE), miR-26a TuD inhibitor (TuD), or negative control (ctrl). Data were pooled from two experiments. FIG. 2G is a graph showing relative expression level of Bak1 mRNA in LSK population 5 days after 5-FU treatment. Data (mean+s.d.) were pooled from two experiments, involving a total of 6 mice per group. FIG. 2H is a graph showing that targeted mutation of the Bak1 gene increased survival of LSK in BM at day 5 after 150 mg/kg 5-FU treatments. Data shown are percent of LSK in BM (n=3 for Bak1^+/+ mice and n=4 for Bak1^−/− mice). […] of Bak1^+/+ and Bak1^−/− LSK in BM. Data shown percent of untreated, after normalization using means of LSK % from BM of two untreated Bak1^+/+ and Bak1^−/− mice as 100%. FIG. 2J is a graph showing the numbers of WBC 10 days after 150 mg/kg 5-FU treatments between Bak1^−/− mice and wild type mice. Data (mean+s.d.) were pooled from two experiments, involving a total of 7 mice per group. *P<0.05, **P<0.01.
# For xenograft models, the NSG mice and BALB/c mice were subcutaneously injected with 2×10^6 viable MDA-MB-231 cells and TUBO cells in their right hind limbs, respectively. After the tumor grew to 1 cm in diameter, mice were randomly divided into the groups for each treatment. For no treatment control, 100 μl saline with 1% mouse serum was intravenously injected through tail vein. […] Tumor sizes were measured in two dimensions every 3 days. Tumor volume (V) was calculated using the following formula: V=(½) S^2×L (S. the shortest dimension; L, the longest dimension). Animals were euthanized when the tumor size was over 2 cm diameters, tumor ulcerated, or became necrotic. For chimera treatment in normal mice, C57BL/6 mice were treated with miR-26a chimera (670 pmol/20 g) everyday for 3 days by intravenous injection. At day 2, 150 mg/kg 5-FU and/or 120 mg/kg carboplatin was injected together with the chimera. Peripheral bloods were collected at day 5 and day 10 after the 5-FU treatment. Complete blood counts were measured by Hemavet 950FS (Drew Scientific, Miami Lakes, Fla., USA).
# For aptamer binding assay, streptavidin-APC (Cat #554067) […] Bioscience, San Jose, Calif., USA) was used for detecting the biotin-conjugated aptamers by flow cytometry. Other cell targeting aptamer specific for Ramos cells (28) was used for negative control. […]
# TUBO-derived tumors = test: Syngeneic TUBO breast tumor model in BALB/c mice; assay type: in vivo, mouse; conditions: for tumor size / growth, monotherapy: chimera 670 pmol/20 g 5 daily injections, 5-FU 50 mg/kg 3 times
# Experimental: BALB/c mice bearing TUBO tumors were treated intravenously with miR-26a chimera (670 pmol/20 g) daily for 5 days. At days 2, 3, and 4, 50 mg/kg 5-FU was intravenously injected. Peripheral blood was collected 5 and 10 days after the initial 5-FU treatment. FIG. 9A is a series of graphs showing the numbers of WBC, RBC, and PLT 5 days after 5-FU treatment. FIG. 9B is a series of graphs showing the numbers of WBC, RBC, and PLT 10 days after 5-FU treatment. Data (mean+s.d.) were pooled from two experiments, involving a total of 6 mice per group. *, P<0.05, **, P<0.01. Xenograft model were generated 8-weeks old female immune-deficient NOD-scid IL2Rgamma^null (NSG™, Jackson Laboratories, Bar Harbar, Me., USA) using human breast cancer cell line. Syngeneic TUBO tumors were established in 8-weeks old female BALB/c mice (from Charles River Animal Facility, Frederick, Md., USA). These tumor-bearing mice were randomly assigned to each treatment group. Eight-week old male C57BL/6 mice and C57BL/6 ly5.2 mice (from Charles River Animal Facility, Frederick, Md., USA) were used for bone marrow transplantation assay. The mouse groups assigned for each treatment were not blinded. No statistical methods were used to pre-determined sample size for the analysis of mouse experiments. All the mice were maintained in the Research Animal Facility at Children's National Institute, Children's National Medical Center. The committee on the Use and Care of Animal at Children's National Institute approved all procedures involving experimental animals. For xenograft models, the NSG mice and BALB/c mice were subcutaneously injected with 2×10^6 viable MDA-MB-231 cells and TUBO cells in their right hind limbs, respectively. After the tumor grew to 1 cm in diameter, mice were randomly divided into the groups for each treatment. For no treatment control, 100 μl saline with 1% mouse serum was intravenously injected through tail vein. […] Tumor sizes were measured in two dimensions every 3 days. Tumor volume (V) was calculated using the following formula: V=(½) S^2×L (S. the shortest dimension; L, the longest dimension). […] For chimera treatment in normal mice, C57BL/6 mice were treated with miR-26a chimera (670 pmol/20 g) everyday for 3 days by intravenous injection. […] Peripheral bloods were collected at day 5 and day 10 after the 5-FU treatment. Complete blood counts were measured by Hemavet 950FS (Drew Scientific, Miami Lakes, Fla., USA).
Molecule,"reduction in the LSK population (hematopoiesis; C57BL/6, mouse, in vivo, 5 days)","Bak1 expression in LSK cells (hematopoiesis; mouse, in vivo)","percent of apoptotic (Annexin V+) LSK (hematopoiesis; mouse, in vivo)","leukocytes and thrombocytes after 5-FU (TUBO-derived tumors; TUBO-tumor bearing mice, 5-FU 50 mg/kg x3)","tumor size / growth, monotherapy (TUBO-derived tumors)","5-FU-induced myelosuppression (leukocyte counts, bone marrow cellularity) (hematopoiesis; 670 pmol/20 g chimera i.v. daily for 3 days, 150 mg/kg 5-FU on day 2)","5-FU-induced myelosuppression (WBC, RBC, PLT), chimera mixed with 5-FU (hematopoiesis; 150 mg/kg 5-FU with 2 nmol/20 g chimera i.v. at same time, 5 and 10 days)","prevention of 5-FU-induced reduction in the LSK population (hematopoiesis; 5 days after 5-FU, chimera 670 pmol/20 g daily for 3 days)","protection of LSK from 5-FU-induced apoptosis (hematopoiesis; 5 days after 5-FU, chimera treatment)","5-FU-induced Bak elevation in LSK cells (hematopoiesis; mouse, in vivo)","tumor growth, 5-FU combined with chimera (TUBO-derived tumors; 5-FU plus miR-26a chimera)","number of leukocytes (WBC) and thrombocytes (PLT), combination with 5-FU (TUBO-derived tumors; TUBO-tumor bearing mice, 5 days after 5-FU)","5-FU-induced leukopenia / myelosuppression in tumor-bearing mice (TUBO-derived tumors; chimera daily for 5 days, 5-FU at days 2, 3, 4)"
"O=c1[nH]cc(F)c(=O)[nH]1 [5-FU, 5-fluorouracil, reference compound]",~10 fold,massively induced,massively increased,significant leukopenia and thrombocytopenia,growth retardation,–,–,–,–,–,–,–,–
B1,–,–,–,–,significant decrease of tumor size; also recorded: more effective than 5-FU treatment,significantly ameliorated myelosuppression,protects mice against 5-FU-induced myelosuppression,largely prevented,specifically protected,significantly diminished,most effective growth retardation,nearly doubled,ameliorates 5-FU induced myelosuppression; also recorded: largely prevented leukopenia
